Columns and labels:
hen egg-white lysozyme = molecular target: T1, hen egg-white lysozyme (hen, UniProt P00698 19-147); experiment: phage ELISA on plates coated with HEL; signal on BSA subtracted
T1 construct: also called HEL; hen egg lysozyme

[1] = molecular target: T2, turkey egg-white lysozyme (turkey, UniProt P00703 19-147); experiment: phage ELISA on plates coated with TEL; signal on BSA subtracted
T2 construct: also called turkey egg lysozyme; turkey lysozyme

bovine serum albumin [2] = molecular target: T3, bovine serum albumin (bovine, UniProt P02769 25-607); experiment: phage ELISA (FIG. 51, clone 9)
T3 construct: also called BSA

bovine serum albumin [3] = molecular target: T3, bovine serum albumin; experiment: phage ELISA (FIG. 51, clone 3)
[4] = molecular target: T2, turkey egg-white lysozyme; experiment: phage ELISA on turkey egg white lysozyme after 4 rounds of selection
human lysozyme = molecular target: T4, human lysozyme (human, UniProt P61626 19-148); experiment: phage ELISA, antigen coated at 1 mg/ml, sheep anti-M13 serum
T4 construct: also called HUL
T4 sequence (looked up): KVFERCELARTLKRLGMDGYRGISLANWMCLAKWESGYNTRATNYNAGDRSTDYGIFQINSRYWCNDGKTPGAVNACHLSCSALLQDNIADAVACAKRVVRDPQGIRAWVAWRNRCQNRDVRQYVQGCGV
Experimental: Before use, this solution was removed, the plate rinsed several times in PBS and incubated with 200 ul of 2% milk powder/PBS for 1 hour. After rinsing several times with PBS, 100 ul of the test samples were added and incubated for 1 hour. Plates were washed (3 rinses in 0.05% Tween 20/PBS followed by 3 rinses in PBS alone). Bound phage antibodies were detected by adding 200 ul/well of a 1/1000 dilution of sheep anti-M13 polyclonal antiserum (gift from G. Winter, although an equivalent antibody can be readily made by one skilled in the art using standard methodologies) in 2% milk powder/PBS and incubating for 1 hour. After washing as above, plates were incubated with biotinylated anti-sheep antibody (Amersham International) for 30 minutes. Plates were washed as above, and incubated with streptavidin-horseradish peroxidase complex (Amersham International).
(§1) 2×10¹⁰ phage transducing units were added to the antigen coated plates in phosphate buffered saline (PBS) containing 2% skimmed milk powder (MPBS). Plates were washed between each step with three rinses of 0.5% Tween-20 in PBS followed by three rinses of PBS.

bovine serum albumin [5] = molecular target: T3, bovine serum albumin; experiment: phage ELISA, antigens coated at 200 µg/ml, average absorbance of duplicates after 10 minutes
Experimental: as §1
ELISA plates were coated at 37° C. in 50 mM NaHCO3 at a protein concentration of 200 μg/ml.

bovine serum albumin [6] = molecular target: T3, bovine serum albumin; experiment: phage ELISA (FIG. 51, clone 1)

T3 sequence (P02769 25-607 limits assumed): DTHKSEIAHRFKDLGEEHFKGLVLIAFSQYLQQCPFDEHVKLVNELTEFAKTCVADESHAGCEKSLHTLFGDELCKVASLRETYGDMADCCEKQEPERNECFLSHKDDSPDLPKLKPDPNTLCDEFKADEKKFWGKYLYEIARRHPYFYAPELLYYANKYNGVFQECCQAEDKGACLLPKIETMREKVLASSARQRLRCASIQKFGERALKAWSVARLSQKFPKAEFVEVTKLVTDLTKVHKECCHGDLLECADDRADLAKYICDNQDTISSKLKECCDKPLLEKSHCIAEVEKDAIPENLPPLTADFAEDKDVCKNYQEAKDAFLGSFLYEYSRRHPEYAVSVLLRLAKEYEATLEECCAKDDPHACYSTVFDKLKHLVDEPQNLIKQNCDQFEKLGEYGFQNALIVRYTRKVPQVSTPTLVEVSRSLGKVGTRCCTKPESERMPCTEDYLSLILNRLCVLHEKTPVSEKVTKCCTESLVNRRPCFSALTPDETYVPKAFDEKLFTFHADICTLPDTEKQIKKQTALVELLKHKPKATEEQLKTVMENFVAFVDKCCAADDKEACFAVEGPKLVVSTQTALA
T2 sequence (P00703 19-147): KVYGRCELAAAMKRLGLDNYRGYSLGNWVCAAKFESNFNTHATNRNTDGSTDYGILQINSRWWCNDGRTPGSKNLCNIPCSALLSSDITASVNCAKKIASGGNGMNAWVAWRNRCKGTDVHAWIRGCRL
T1 sequence (P00698 19-147 limits assumed): as the sequence (P00703 19-147) above, with Y3F, L15H, H41Q, K73R, A99V, G101D, H121Q counted along it

B1: clone M21 (clone 9 of FIG. 51): scFv of D1.3 VH with a light chain selected from the VLK library of an unimmunised mouse (scFv)
scFv: QVQLQESGPGLVAPSQSLSITCTVSGFSLTGYGVNWVRQPPGKGLEWLGMIWGDGNTDYNSALKSRLSISKDNSKSQVFLKMNSLHTDDTARYYCARERDYRLDYWGQGTTVTVSSGGGGSGGGGSGGGGSDIELTQSPALMAASPGEKVTITCSVSSSISSSNLHWYQQKSETSPKPWIYGTSNLASGVPVRFSGSGSGTSYSLTISSMEAEDAATYYCQQWSSYPLTFGAGTKLEIKR
notes: not shown: fd gene III protein (g3p), the phage display partner fused after the scFv through the NotI AAA junction
Hen egg-white lysozyme
  binding result: binds
[1]
  binding result: binds
Bovine serum albumin [2]
  binding result: no binding

B2: clone MF1 (clone 3 of FIG. 51): scFv of D1.3 VH with a light chain selected from the VLK library of an unimmunised mouse (scFv)
scFv: QVQLQESGPGLVAPSQSLSITCTVSGFSLTGYGVNWVRQPPGKGLEWLGMIWGDGNTDYNSALKSRLSISKDNSKSQVFLKMNSLHTDDTARYYCARERDYRLDYWGQGTTVTVSSGGGGSGGGGSGGGGSDIELTQSPSSLSASLGERVSLTCRASQDIGSSLNWLQQEPDGTIKRLIYATSSLDSGVPKRFSGSRSGSDYSLTISSLESEDFVDYYCLQYASSPWTFGGGTKLELKR
notes: also called M1F; D1.3 M1F; not shown: fd gene III protein (g3p), the phage display partner fused after the scFv through the NotI AAA junction
Hen egg-white lysozyme
  binding result: binds
[1]
  binding result: binds
Bovine serum albumin [3]
  binding result: no binding

B3: lysozyme binder scFv from the unimmunized human library (VH13.1 / VL13.1), on phage (scFv, V domains shown)
VH: QVQLVQSGAEVKKPGQSLMISCQGSGYSFSNYWIGWVRQMPGKGLEWMGIIYPGDSDTRYSPSFQGQVTISADKSISTAYLHWSSLKASDTALYYCARLVGGTPAYWGQGT
VL: HVILTQPASVSGSPGQSITISCTGSSRDVGGYNYVSWYQHHPGKAPKLLISEVTNRPSGVSNRFSGSKSGNTASLTISGLQAEDEADYFCASYTSSKTYVFGG
notes: scFv with (Gly4Ser)3 linker on pHEN1 phagemid particles
[4]
  binding result: binds

B4: fdTscFvD1.3 (phage antibody displaying the single chain Fv of anti-lysozyme antibody D1.3) (scFv, not shown: large carriers)
scFv: QVQLQESGPGLVAPSQSLSITCTVSGFSLTGYGVNWVRQPPGKGLEWLGMIWGDGNTDYNSALKSRLSISKDNSKSQVFLKMNSLHTDDTARYYCARERDYRLDYWGQGTTVTVSSGGGGSGGGGSGGGGSDIELTQSPASLSASVGETVTITCRASGNIHNYLAWYQQKQGKSPQLLVYYTTTLADGVPSRFSGSGSGTQYSLKINSLQPEDFGSYYCQHFWSTPRTFGGGTKLEIK
modifications: scFv displayed on fd phage as a fusion near the N-terminus of g3p
notes: also called pAb D1.3; pAb (D1.3)
Human lysozyme
  binding result: no binding
Bovine serum albumin [5]
  binding result: no binding (tested: one amount, as in example 6)

B5: fdCAT2 scFvD1.3 phage (scFv, not shown: large carriers)
scFv: B4 scFv
modifications: scFv displayed on fd phage as an N-terminal fusion to g3p
notes: also called original D1.3 scFv
Bovine serum albumin [6]
  binding result: no binding

— patent publication US20070148774A1 (MEDICAL RESEARCH COUNCIL, published 2007)
